Data: patent US20230226223A1 (SOLA BIOSCIENCES, published 2023)
Substitutions are numbered along the chain they refer to.

B1: Construct 35, JB1-QBP1-QBP1 (2) (designed binder)
chain: MGKDYYQTLGLARGASDEEIKRAYRRQALRYHPDKNKEPGAEEKFKEIAEAYDVLSDPRKREIFDRYGEEGLKGSSNWKWWPGIFDEAAAKSNWKWWPGIFDLE
B2: Construct 36, JB1-QBP1-QBP1 (3) (designed binder)
chain: B1 chain with E87G, A88G, A89G, A90G, K91S
B3: Construct 3, QBP1-JB1 (designed binder)
chain: MGKPIPNPLLGLDSTGTGSSNWKWWPGIFDEFMGKDYYQTLGLARGASDEEIKRAYRRQALRYHPDKNKEPGAEEKFKEIAEAYDVLSDPRKREIFDRYGEEGLKGSDIAAALE
B4: Construct 37, JB1-QBP1-QBP1 (4) (designed binder)
chain: MGKDYYQTLGLARGASDEEIKRAYRRQALRYHPDKNKEPGAEEKFKEIAEAYDVLSDPRKREIFDRYGEEGLKGSGGGGSSNWKWWPGIFDEAAAKSNWKWWPGIFDLE
B5: Construct 40, JB1-QBP1-QBP1 (7) (designed binder)
chain: B4 chain with G76E, G77A, G78A, G79A, S80K, E92G, A93G, A94G, A95G, K96S
B6: Construct 38, JB1-QBP1-QBP1 (5) (designed binder)
chain: B4 chain with E92G, A93G, A94G, A95G, K96S
B7: Construct 39, JB1-QBP1-QBP1 (6) (designed binder)
chain: B4 chain with G76E, G77A, G78A, G79A, S80K
B8: Construct 51, JB1-QBP1-QBP1 (18) (designed binder)
chain: MGKDYYQTLGLARGASDEEIKRAYRRQALRYHPDKNKEPGAEEKFKEIAEAYDVLSDPRKREIFDRYGEEGLKGSEAAAKSNWKWWPGIFDLEGGGGSSNWKWWPGIFDLE
B9: Construct 52, JB1-QBP1-QBP1 (19) (designed binder)
chain: B8 chain with E76G, A77G, A78G, A79G, K80S
B10: Construct 55, QBP1-JB1-QBP1 (2) (designed binder)
chain: MSNWKWWPGIFDLEGKDYYQTLGLARGASDEEIKRAYRRQALRYHPDKNKEPGAEEKFKEIAEAYDVLSDPRKREIFDRYGEEGLKGSGGGSSNWKWWPGIFDLE
B11: Construct 1, JB1 (other)
chain: MGKDYYQTLGLARGASDEEIKRAYRRQALRYHPDKNKEPGAEEKFKEIAEAYDVLSDPRKREIFDRYGEEGLKGSDIAAALESRDYKDDDDK
B12: Construct 56, JB1-JB1-QBP1 (designed binder)
chain: MGKDYYQTLGLARGASDEEIKRAYRRQALRYHPDKNKEPGAEEKFKEIAEAYDVLSDPRKREIFDRYGEEGLKGSGSEFMGKDYYQTLGLARGASDEEIKRAYRRQALRYHPDKNKEPGAEEKFKEIAEAYDVLSDPRKREIFDRYGEEGLKGSGGGGSGGGGSGGGGSGGGGSAAASNWKWWPGIFDLESRGDYKDDDDK
B13: Construct 45, JB1-QBP1-QBP1 (12) (designed binder)
chain: MGKDYYQTLGLARGASDEEIKRAYRRQALRYHPDKNKEPGAEEKFKEIAEAYDVLSDPRKREIFDRYGEEGLKGSGGGGSSNWKWWPGIFDGGGGSGGGGSSNWKWWPGIFDLE
B14: Construct 47, JB1-QBP1-QBP1 (14) (designed binder)
chain: B13 chain with G76E, G77A, G78A, G79A, S80K
B15: Construct 46, JB1-QBP1-QBP1 (13) (designed binder)
chain: B13 chain with G92E, G93A, G94A, G95A, S96K, G97E, G98A, G99A, G100A, S101K
B16: Construct 54, QBP1-JB1-QBP1 (1) (designed binder)
chain: MSNWKWWPGIFDGKDYYQTLGLARGASDEEIKRAYRRQALRYHPDKNKEPGAEEKFKEIAEAYDVLSDPRKREIFDRYGEEGLKGSSNWKWWPGIFDGDYKDDDDK
B17: Construct 49, JB1-QBP1-QBP1 (16) (designed binder)
chain: MGKDYYQTLGLARGASDEEIKRAYRRQALRYHPDKNKEPGAEEKFKEIAEAYDVLSDPRKREIFDRYGEEGLKGSGGGGSGGGGSGGGGSGGGGSAAASNWKWWPGIFDLEGGGGSSRAAASNWKWWPGIFDLE
B18: Construct 50, JB1-QBP1-QBP1 (17) (designed binder)
chain: B17 chain with G112E, G113A, G114A, G115A, S116K
B19: Construct 41, JB1-QBP1-QBP1 (8) (designed binder)
chain: MGKDYYQTLGLARGASDEEIKRAYRRQALRYHPDKNKEPGAEEKFKEIAEAYDVLSDPRKREIFDRYGEEGLKGSEAAAKSNWKWWPGIFDEAAAKSNWKWWPGIFD
B20: Construct 42, JB1-QBP1-QBP1 (9) (designed binder)
chain: B19 chain with E92G, A93G, A94G, A95G, K96S
B21: Construct 2, JB1-QBP1 (designed binder)
chain: MGKDYYQTLGLARGASDEEIKRAYRRQALRYHPDKNKEPGAEEKFKEIAEAYDVLSDPRKREIFDRYGEEGLKGSDIGGGGSGGGGSGGGGSGGGGSAAASNWKWWPGIFDGLE
B22: Construct 57, JB1-QBP1-JB1-QBP1 (designed binder)
chain: MGKDYYQTLGLARGASDEEIKRAYRRQALRYHPDKNKEPGAEEKFKEIAEAYDVLSDPRKREIFDRYGEEGLKGSGSSNWKWWPGIFDEFMGKDYYQTLGLARGASDEEIKRAYRRQALRYHPDKNKEPGAEEKFKEIAEAYDVLSDPRKREIFDRYGEEGLKGSGGGGSGGGGSGGGGSGGGGSAAASNWKWWPGIFDLESRGDYKDDDDK
B23: Construct 48, JB1-QBP1-QBP1 (15) (designed binder)
chain: MGKDYYQTLGLARGASDEEIKRAYRRQALRYHPDKNKEPGAEEKFKEIAEAYDVLSDPRKREIFDRYGEEGLKGSEAAAKSNWKWWPGIFDEAAAKEAAAKSNWKWWPGIFDLE
B24: Construct 43, JB1-QBP1-QBP1 (10) (designed binder)
chain: MGKDYYQTLGLARGASDEEIKRAYRRQALRYHPDKNKEPGAEEKFKEIAEAYDVLSDPRKREIFDRYGEEGLKGSSNWKWWPGIFDGGGGSGGGGSSNWKWWPGIFDLE
B25: Construct 44, JB1-QBP1-QBP1 (11) (designed binder)
chain: B24 chain with G87E, G88A, G89A, G90A, S91K, G92E, G93A, G94A, G95A, S96K
B26: Construct 53, Flag-QBP1-JB1-QBP1-Flag (designed binder)
chain: MDYKDDDDKGGTGSSNWKWWPGIFDEFMGKDYYQTLGLARGASDEEIKRAYRRQALRYHPDKNKEPGAEEKFKEIAEAYDVLSDPRKREIFDRYGEEGLKGSGGGGSGGGGSGGGGSGGGGSAAASNWKWWPGIFDLESRGDYKDDDDK

Tests used:
[1] = target: GFP-HTTQ74 reporter construct; assay: cell-based or functional assay
[2] = target: GFP-HTTQ74 reporter construct; assay: cell-based or functional assay; remark: listed apart in the source

Row | Binder | Reduction of Aggregation (%), filter trap assay [1] [%] | % Aggregation (relative to Q74 alone), filter trap assay [2] [%]
1 | B1 | 97.9 | 
2 | B2 | 95.7 | 
3 | B3 |  | 67.5
4 | B4 | 97 | 
5 | B5 | 96 | 
6 | B6 | 96.9 | 
7 | B7 | 98.1 | 
8 | B8 | 96.5 | 
9 | B9 | 96.9 | 
10 | B10 | 9.45 | 
11 | B11 |  | 127
12 | B12 | 68.5 | 
13 | B13 | 91.1 | 
14 | B14 | 99.7 | 
15 | B15 | 100 | 
16 | B16 | 0 | 
17 | B17 | 82.5 | 
18 | B18 | 90.9 | 
19 | B19 | 91.1 | 
20 | B20 | 87 | 
21 | B21 |  | 75.9
22 | B22 | 94.1 | 
23 | B23 | 100 | 
24 | B24 | 99.5 | 
25 | B25 | 99.6 | 
26 | B26 | 79.9 | 
